Results on 4 molecules are retold here after EP4660205A1 (Beijing Wisdomab Biotechnology Co., Ltd, dated 2025).

Where two headings read alike, the source gives them in different places.

Test [1] has as its target T1, human IL-36R on the cell surface (HEK-Blue IL-36 cells, HaCAT cells, human CD14+ monocytes) (human, UniProt Q9HB29 20-575).
T1 sequence (looked up): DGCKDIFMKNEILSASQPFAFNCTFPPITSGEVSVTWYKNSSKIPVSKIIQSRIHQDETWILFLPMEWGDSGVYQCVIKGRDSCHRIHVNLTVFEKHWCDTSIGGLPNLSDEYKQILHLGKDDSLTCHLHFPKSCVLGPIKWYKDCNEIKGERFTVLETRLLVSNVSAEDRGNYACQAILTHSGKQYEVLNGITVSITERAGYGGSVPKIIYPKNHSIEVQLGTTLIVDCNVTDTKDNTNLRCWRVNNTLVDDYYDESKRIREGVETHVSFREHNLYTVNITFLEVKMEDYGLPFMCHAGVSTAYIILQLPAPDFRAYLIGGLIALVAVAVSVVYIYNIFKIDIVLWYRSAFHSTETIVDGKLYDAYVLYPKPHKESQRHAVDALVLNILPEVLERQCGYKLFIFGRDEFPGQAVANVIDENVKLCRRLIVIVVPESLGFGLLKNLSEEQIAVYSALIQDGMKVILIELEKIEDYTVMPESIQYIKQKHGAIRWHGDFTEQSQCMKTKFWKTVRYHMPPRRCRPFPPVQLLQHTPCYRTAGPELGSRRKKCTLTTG
Put plainly: cell-based or functional assay.

The target of test [2] is T1, human IL-36R on the cell surface …. Put plainly: cell-based or functional assay. The source holds these as a separate data set.
Test [3] addresses T2, hIL-36R-His (extracellular domain of human IL-36R with C-terminal His tag) (human (homo sapiens), UniProt Q9HB29 20-335).
T2 construct: also called human hIL-36R-His
T2 sequence: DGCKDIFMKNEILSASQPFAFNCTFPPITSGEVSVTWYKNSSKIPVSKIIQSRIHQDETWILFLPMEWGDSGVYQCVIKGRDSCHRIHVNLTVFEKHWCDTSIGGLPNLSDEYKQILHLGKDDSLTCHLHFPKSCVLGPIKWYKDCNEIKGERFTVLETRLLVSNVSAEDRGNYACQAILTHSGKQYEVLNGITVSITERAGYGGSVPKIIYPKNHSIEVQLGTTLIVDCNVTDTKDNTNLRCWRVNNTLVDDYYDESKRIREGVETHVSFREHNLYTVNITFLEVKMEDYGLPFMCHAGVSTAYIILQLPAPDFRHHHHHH
The test is described as follows: SPR (Biacore T200), antibody captured by anti-human Fc, hIL-36R-His as analyte, 1:1 model.

Test [4] concerns the target T3, hIL-1R3-His (extracellular domain of human IL-1R3 with C-terminal His tag) (human (homo sapiens), UniProt Q9NPH3 21-359).
T3 sequence: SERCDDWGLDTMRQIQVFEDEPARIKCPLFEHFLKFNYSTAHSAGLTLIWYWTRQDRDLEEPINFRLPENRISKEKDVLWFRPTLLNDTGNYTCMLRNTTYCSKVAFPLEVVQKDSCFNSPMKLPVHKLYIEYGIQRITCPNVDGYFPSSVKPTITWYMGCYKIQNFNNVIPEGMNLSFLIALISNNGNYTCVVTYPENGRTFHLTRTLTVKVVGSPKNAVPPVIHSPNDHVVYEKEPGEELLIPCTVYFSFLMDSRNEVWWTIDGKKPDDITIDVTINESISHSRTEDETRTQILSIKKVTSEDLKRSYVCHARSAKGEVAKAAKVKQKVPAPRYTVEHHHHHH
Put plainly: SPR (Biacore T200), antibody captured by anti-human Fc, hIL-1R3-His as analyte, 1:1 model.

Test [5] addresses T4, human IL-1R3 on the cell surface (HaCAT cells, PBMC/NK cells, MRC-5 cells) (human, UniProt Q9NPH3 21-570).
T4 sequence (looked up): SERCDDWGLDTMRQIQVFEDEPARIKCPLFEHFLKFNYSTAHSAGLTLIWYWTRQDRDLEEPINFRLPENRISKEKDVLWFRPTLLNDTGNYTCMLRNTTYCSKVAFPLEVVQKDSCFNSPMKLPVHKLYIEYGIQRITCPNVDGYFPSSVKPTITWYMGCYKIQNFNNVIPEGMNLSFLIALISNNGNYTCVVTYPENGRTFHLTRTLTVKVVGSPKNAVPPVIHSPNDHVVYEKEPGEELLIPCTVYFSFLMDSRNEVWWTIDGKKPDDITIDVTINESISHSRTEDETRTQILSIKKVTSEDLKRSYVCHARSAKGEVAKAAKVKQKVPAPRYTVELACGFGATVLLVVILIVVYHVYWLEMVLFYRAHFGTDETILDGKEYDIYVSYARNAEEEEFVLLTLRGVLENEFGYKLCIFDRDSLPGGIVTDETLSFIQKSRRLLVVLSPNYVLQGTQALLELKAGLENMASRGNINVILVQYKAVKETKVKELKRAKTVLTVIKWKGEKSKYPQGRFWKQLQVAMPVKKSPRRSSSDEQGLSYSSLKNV
The test is described as follows: cell-based or functional assay.

Test [6] addresses T3, hIL-1R3-His (extracellular domain of …). Put plainly: SPR (Biacore T200), antibody captured by anti-human Fc, hIL-1R3-His as analyte, 1:1 model. The source holds these as a separate data set.
The target is the same in test [7]. The description is as above. The source holds these as a separate data set.
Test [8] addresses T2, hIL-36R-His (extracellular domain of …). Put plainly: SPR (Biacore T200), antibody captured by anti-human Fc, hIL-36R-His as analyte, 1:1 model. The source holds these as a separate data set.
Test [9] concerns the target T1, human IL-36R on the cell surface …. The test is described as follows: cell-based or functional assay. This is another data set of the same source.
For test [10] the target is unchanged. Put plainly: cell-based or functional assay. This is another data set of the same source.

B1: Crossmab bispecific antibody (R1B9VH-h1+R1B9VK-h1-Fab-cross+R49E11VH-h3+L26B11VK-Fab) (bispecific antibody, human IgG1, kappa)
heavy 1: QVQLVQSGAEVKKPGASVKVSCKASGYSFTSSWIHWVRQAPGQGLEWMGEINPGSGRSNYNENFQGRVTMTVDTSISTAYMELSRLRSDDTAVYYCTVVFYGEPYFPFWGQGTLVTVSSASTKGPSVFPLAPSSKSTSEGTAALGCLVKDYFPEPVTVSWNSGALTSGVHTFPAVLQSSGLYSLSSVVTVPSSSLGTQTYICNVDHKPSNTKVDKTVEPKSCDKTHTCPPCPAPEFEGGPSVFLFPPKPKDTLMISRTPEVTCVVVDVSQEDPEVQFNWYVDGVEVHNAKTKPREEQYNSTYRVVSVLTVLHQDWLNGKEYKCKVSNKALPASIEKTISKAKGQPREPQVCTLPPSQEEMTKNQVSLSCAVKGFYPSDIAVEWESNGQPENNYKTTPPVLDSDGSFFLVSKLTVDKSRWQEGNVFSCSVMHEALHNHYTQKSLSLSPGK
light 1: EIVLTQSPGTLSLSPGERATLSCRASQSVIYSYLAWYQQKPGQAPRLLIYSASKRASGIPDRFSGSGSGTDFTLTISRLEPEDFAVYYCQQHAGIPVTFGQGTKVEIKRTVAAPSVFIFPPSDEQLKSGTASVVCLLNNFYPREAKVQWKVDNALQSGNSQESVTEQDSKDSTYSLSSTLTLSKADYEKHKVYACEVTHQGLSSPVTKSFNRGEC
heavy 2: EVQLVESGGGLVQPGGSLRLSCAASGFTFSSYAMSWVRQAPGKGLVWVAEISRGGSHTYYPDTVTGRFTISRDNAKNTLYLQMNSLRAEDTAVYYCARSYGNYPFDYWGQGTTVTVSSASVAAPSVFIFPPSDEQLKSGTASVVCLLNNFYPREAKVQWKVDNALQSGNSQESVTEQDSKDSTYSLSSTLTLSKADYEKHKVYACEVTHQGLSSPVTKSFNRGECDKTHTCPPCPAPEFEGGPSVFLFPPKPKDTLMISRTPEVTCVVVDVSHEDPEVKFNWYVDGVEVHNAKTKPREEQYNSTYRVVSVLTVLHQDWLNGKEYKCKVSNKALPASIEKTISKAKGQPREPQVYTLPPCREEMTKNQVSLWCLVKGFYPSDIAVEWESNGQPENNYKTTPPVLDSDGSFFLYSKLTVDKSRWQQGNVFSCSVMHEALHNHYTQKSLSLSPGK
light 2: EIVLTQSPATLSLSPGERATLSCSASSSVSYMYWYQQKPGQAPRLLIYDTSNLASGIPARFSGSGSGTDFTLTISSLEPEDFAVYYCQQWSSYPLTFGQGTKLEIKSSASTKGPSVFPLAPSSKSTSGGTAALGCLVKDYFPEPVTVSWNSGALTSGVHTFPAVLQSSGLYSLSSVVTVPSSSLGTQTYICNVNHKPSNTKVDKRVEPKSC
notes: also called IL-36R×IL-1R3 Crossmab bispecific antibody
For B1, in [1], the “fold increase of activity by IC50 against R49E11VH-h3+L26B11VK, IL-36α, HaCAT hIL-8 secretion” value was approximately 3 fold; the “fold increase of activity by IC50 against R49E11VH-h3+L26B11VK, IL-36β, HaCAT hIL-8 secretion” value was approximately 13 fold; the “fold increase of activity by IC50 against R49E11VH-h3+L26B11VK, IL-36γ, HaCAT hIL-8 secretion” value is approximately 103 fold. In [2], the “IC50 for inhibiting IL-36α from inducing hIL-8 secretion by HaCAT cells” value (“IC50 for inhibiting IL-36α” for short) is 0.0183 nM, the “IC50 for inhibiting IL-36β from inducing hIL-8 secretion by HaCAT cells” value (shortened to “IC50 for inhibiting IL-36β”) is 0.0211 nM and the “IC50 for inhibiting IL-36γ from inducing hIL-8 secretion by HaCAT cells” value (“IC50 for inhibiting IL-36γ … by HaCAT cells” below) is 0.0184 nM. In test [3], this molecule came in with a Kd of 0.669 nM, an off-rate constant (koff) of 4.37e-05 s⁻¹ and a kon of 65400 M⁻¹ s⁻¹. In test [4], this molecule registered a Kd of 0.761 nM, a koff of 0.000155 s⁻¹ and an association rate constant (kon) of 203000 M⁻¹ s⁻¹.

B2: R1B9VH-h1+R1B9VK-h1 (antibody, V domains shown)
VH: EVQLVESGGGLVQPGGSLRLSCAASGFTFSSYAMSWVRQAPGKGLVWVAEISRGGSHTYYPDTVTGRFTISRDNAKNTLYLQMNSLRAEDTAVYYCARSYGNYPFDYWGQGTTVTVSS
VL: EIVLTQSPATLSLSPGERATLSCSASSSVSYMYWYQQKPGQAPRLLIYDTSNLASGIPARFSGSGSGTDFTLTISSLEPEDFAVYYCQQWSSYPLTFGQGTKLEIK
notes: also called humanized IL-1R3 antibody; R1B9VH-hl+R1B9VK-h1
As to B2, in [5], the “IC50 for inhibiting IL-36α” value was 0.195 nM, the “IC50 for inhibiting IL-36β” value was 0.0961 nM and the “IC50 for inhibiting IL-36γ … by HaCAT cells” value was 0.608 nM. In test [6], the affinity, expressed as Kd, was 1.45 nM; the dissociation rate constant (koff) amounted to 0.000153 s⁻¹; the kon was determined as 106000 M⁻¹ s⁻¹. In [4], this molecule had a Kd of 1.45 nM, a koff of 0.000153 s⁻¹ and a kon of 106000 M⁻¹ s⁻¹. In [7], this molecule came in with a Kd of 1.12 nM, a koff of 0.000111 s⁻¹ and a kon of 99200 M⁻¹ s⁻¹.

B3: R49E11VH-h3+L26B11VK (antibody, V domains shown)
VH: QVQLVQSGAEVKKPGASVKVSCKASGYSFTSSWIHWVRQAPGQGLEWMGEINPGSGRSNYNENFQGRVTMTVDTSISTAYMELSRLRSDDTAVYYCTVVFYGEPYFPFWGQGTLVTVSS
VL: EIVLTQSPGTLSLSPGERATLSCRASQSVIYSYLAWYQQKPGQAPRLLIYSASKRASGIPDRFSGSGSGTDFTLTISRLEPEDFAVYYCQQHAGIPVTFGQGTKVEIK
notes: Found as a Fab on phage; also called anti-human IL-36R monoclonal antibody; IL-36R monoclonal antibody
Turning to B3, in [8], the Kd stood at 2.9 nM, the koff amounted to 6.63e-05 s⁻¹ and the kon came to 22800 M⁻¹ s⁻¹. For the same molecule, the “IC50 for inhibiting IL-36γ-induced hIL-8 secretion by human monocytes” value in test [9] was determined as 0.0677 nM. In test [10], the “IC50 for inhibiting IL-36α” value was determined as 0.0559 nM, the “IC50 for inhibiting IL-36β” value worked out at 0.28 nM and the “IC50 for inhibiting IL-36γ … by HaCAT cells” value was found to be 1.58 nM. In test [2], the “IC50 for inhibiting IL-36α” value was 0.0533 nM, the “IC50 for inhibiting IL-36β” value stood at 0.276 nM and the “IC50 for inhibiting IL-36γ … by HaCAT cells” value was determined as 1.9 nM. In test [3], this molecule showed a Kd of 1.76 nM, a koff of 6.83e-05 s⁻¹ and a kon of 38900 M⁻¹ s⁻¹.

B4: Spesolimab (antibody, V domains shown)
VH: QVQLVQSGAEVKKPGASVKVSCKASGYSFTSSWIHWVKQAPGQGLEWMGEINPGNVRTNYNENFRNKVTMTVDTSISTAYMELSRLRSDDTAVYYCTVVFYGEPYFPYWGQGTLVTVSS
VL: QIVLTQSPGTLSLSPGERATMTCTASSSVSSSYFHWYQQKPGQAPRLWIYRTSRLASGVPDRFSGSGSGTDFTLTISRLEPEDAATYYCHQFHRSPLTFGAGTKLEIK
notes: Made in house from the variable regions of US9023995B2 as a whole IgG1m3 subtype antibody (control)
As to B4, in test [8], the affinity, expressed as Kd, was 2.56 nM; the koff came out at 7.39e-05 s⁻¹; the on-rate (kon) was 28800 M⁻¹ s⁻¹. For the same molecule, in [9], the “IC50 for inhibiting IL-36γ-induced hIL-8 secretion by human monocytes” value worked out at 0.0288 nM. In test [10], the “IC50 for inhibiting IL-36α” value is 0.0939 nM, the “IC50 for inhibiting IL-36β” value was 0.114 nM and the “IC50 for inhibiting IL-36γ … by HaCAT cells” value came out at 0.682 nM. Further, in test [2], the “IC50 for inhibiting IL-36α” value was determined as 0.0433 nM, the “IC50 for inhibiting IL-36β” value was 0.172 nM and the “IC50 for inhibiting IL-36γ … by HaCAT cells” value is 0.642 nM.
